Reference: patent US20080248465A1

Tests used:
[1] = biological target: human FcγRIIa, H131 allele (human) (UniProt P12318); assay: flow cytometry on FcγRIIa (H131) transfectants
[2] = biological target: human FcγRIIa, R131 allele (human) (UniProt P12318); assay: flow cytometry on FcγRIIa (R131) transfectants
human FcγRIIb (human) [3] = biological target: human FcγRIIb (human) (UniProt P31994); assay: flow cytometry on FcγRIIb transfectants
human FcγRIIb (human) [4] = biological target: human FcγRIIb (human) (UniProt P31994); assay: flow cytometry, background staining on EBV-transformed B cells of 2B.1/2B.1 donors
human FcγRIIb (human) [5] = biological target: human FcγRIIb (human) (UniProt P31994); assay: flow cytometry, background staining on peripheral B lymphocytes of 2B.1/2B.1 donors
human FcγRIIb (human) [6] = biological target: human FcγRIIb (human) (UniProt P31994); assay: flow cytometry, background staining on peripheral B lymphocytes of 2B.1/2B.4 donors
human FcγRIIb (human) [7] = biological target: human FcγRIIb (human) (UniProt P31994); assay: flow cytometry, background staining on EBV-transformed B cells of 2B.1/2B.4 donors
human FcγRIIb (human) [8] = biological target: human FcγRIIb (human) (UniProt P31994); assay: flow cytometry, background staining on EBV-transformed B cells of a 2B.4/2B.4 donor

Sequence of UniProt P31994 (P31994 43-310): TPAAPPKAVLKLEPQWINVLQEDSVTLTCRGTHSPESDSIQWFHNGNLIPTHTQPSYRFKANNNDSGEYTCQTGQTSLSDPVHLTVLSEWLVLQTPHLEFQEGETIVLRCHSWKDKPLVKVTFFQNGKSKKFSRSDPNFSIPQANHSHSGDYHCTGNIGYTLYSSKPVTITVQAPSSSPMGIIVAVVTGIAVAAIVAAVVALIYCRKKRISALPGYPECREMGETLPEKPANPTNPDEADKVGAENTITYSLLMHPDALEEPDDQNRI

| Substance | fold difference against mAb IV.3 [1] [fold] | fold difference against mAb IV.3 [2] [fold] | fold staining against mAb IV.3 (human FcγRIIb (human) [3]) [fold] | MFI (human FcγRIIb (human) [4]) [MFI] | MFI (human FcγRIIb (human) [5]) [MFI] | MFI (human FcγRIIb (human) [6]) [MFI] | MFI (human FcγRIIb (human) [7]) [MFI] | MFI (human FcγRIIb (human) [8]) [MFI] |
| --- | --- | --- | --- | --- | --- | --- | --- | --- |
| mAb AT-10 (antibody) | < 2 | < 2 | 10 |  |  |  |  |  |
| mIgG1 isotype control (antibody) |  |  |  | 3.6 | 4.1 | 3.9 | 3.6 | 3.9 |
